Assay results taken from PMC2645956.

Molecular target: Paracoccus denitrificans soluble cytochrome c552 fragment, wild-type (unlabeled) (Paracoccus denitrificans) (UniProt P54820)
UniProt P54820, sequence (P54820 78-176): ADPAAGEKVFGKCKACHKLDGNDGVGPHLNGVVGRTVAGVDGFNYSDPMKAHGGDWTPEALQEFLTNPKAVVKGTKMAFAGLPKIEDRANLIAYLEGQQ

- Brønsted parameter ZAZB of the ionic strength dependence of k12, stopped-flow: -4
Substance: Paracoccus denitrificans soluble cytochrome c1 core fragment, wild-type (domain or fragment)
